Source: the nanobody polyreactivity screen of Harvey et al. (2022)

Experiment: yeast display, Sf9 membrane polyspecificity reagent, FACS + sequencing; frameworks hold sequencing errors
Summary of the method: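 Nanobodies came from a synthetic yeast display library in Saccharomyces cerevisiae BJ5465, induced with galactose for 36–48 hours and stained for 1 hour at 4 °C with 10% biotinylated, detergent-solubilized Sf9 membrane reagent. Cells were enriched on streptavidin microbeads and then FACS-sorted, with low and high (top ~1%) gates set on anti-HA fluorescence for expression and streptavidin fluorescence for reagent binding. Each polyreactivity label reflects the gate a clone came from. Genes were amplified by colony PCR, sequenced by MiSeq 2 × 250 and filtered by CDR length.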
In the case of “QVQLVESGGGLVQAGGSLRLSCAASGSIFIPNAMGWYRQAPGKERELVAAISLSDTTTYYADSVKGRFTISRDNAKNTVYLQMNSLKPEDTAVYYCAADYWFYPTSPVMDYWGQGTQVTVSS”, the “polyreactivity (PSR sort gate)” value is reported as “low polyreactivity”.
With “QVQLVESGGGLVQAGGSLRLSCAASGSIFIPYAMGWYRQAPGKERELVAAISGSGGSTYYADSVKGRFTISRDNAKNTVYLQMNSLKPEDTAVYYCNAVYRRSKYYFSQGYDYWGQGTQVTVSS” the “polyreactivity (PSR sort gate)” value was “high polyreactivity”.
For “QVQLVESGGGLVQAGGSLRLSCAASGSIFIPYAMGWYRQAPGKETELVAAISSSGSSYYADSVKGRFTISRDNAKNTVYLQMNSLKPEDTAVYYCAAERHYSYSSYDYWGQGTQVTVSS”, the “polyreactivity (PSR sort gate)” value was “low polyreactivity”.
In the case of “QVQLVESGGGLVQAGGSLRLSCAASGSIFIRNAMGWYRQAPGKERELVAAISGSGSSTYYADSVKGRFTISRDNAKNTVYLQMNSLKPEDTSVYYCNTDRNHSYQYGGYDYWGQGTQVTVSS”, the “polyreactivity (PSR sort gate)” value is reported as “low polyreactivity”.
For “QVQLVESGGGLVQAGGSLRLSCAASGSIFIRNAMGWYRQAPGKERELVAAITSRGGSRYYADSVKGRFTISRDNAKNTVYLQMNSLKPEDTSVYYCARRYYGLYDYWGQGTQVTVSS”, the “polyreactivity (PSR sort gate)” value was “low polyreactivity”.
With “QVQLVESGGGLVQAGGSLRLSCAASGSIFIRNAMGWYRQAPGKERELVAANSGSGSSTYYADSVKGRFTNSRDNAKNTVYLQMNSVKPEDTAVYYCNTDRTLSYQYGGYDYWGLGTQVTVSS” the “polyreactivity (PSR sort gate)” value was “low polyreactivity”.
In the case of “QVQLVESGGGLVQAGGSLRLSCAASGSIFISNAMGWYRQAPGKERELVAAISSSGGRTYYADSVKGRFTISRDNAKNTVYLQMNSLKPEDTAVYYCAVRGLYQGRRRYSSEYDYWGQGTQVTVSS”, the “polyreactivity (PSR sort gate)” value is reported as “high polyreactivity”.
For “QVQLVESGGGLVQAGGSLRLSCAASGSIFITNAMGWYRQAPGKERELVAGITSGGSTYYADSVKGRFTISRDNAKNTFYLQMNSLKPEDTAVYYCAADGVTVTADEYDYWGHGTQVTVSS”, the “polyreactivity (PSR sort gate)” value was “low polyreactivity”.
For “QVQLVESGGGLVQAGGSLRLSCAASGSIFITNAMGWYRQAPGKERELVATITDSGGSTYYADSVKGRFTISRDNAKNTVYLQMNSLKPEDTAVYYGAKDRVYLTRVYHYDYWGQGTQVTVSS”, the “polyreactivity (PSR sort gate)” value was “low polyreactivity”.
With “QVQLVESGGGLVQAGGSLRLSCAASGSIFITYAMGWYRQAHGKERELVAAIRDSGDRTYYADSVKGRFTISRDNAKNTVYLQMNSLKPEDTAVYYCNKDIERYVRIYDSWGQGTQVTVSS” the “polyreactivity (PSR sort gate)” value was “low polyreactivity”.
In the case of “QVQLVESGGGLVQAGGSLRLSCAASGSIFITYAMGWYRQAPGKERELVAAIRDSGDRTYYADSVKGRFTISRDNAKKTVYLQMNSLKPEDTAVYYCAARIWTGRGRKLGYGYDYWGQGTQVTVSS”, the “polyreactivity (PSR sort gate)” value is reported as “low polyreactivity”.
For “QVQLVESGGGLVQAGGSLRLSCAASGSIFITYAMGWYRQAPGKERELVAAIRDSGDRTYYADSVKGRFTISRDYAKNTVYLQMNSLKPEDTAVYYCNARWQEPLKYDYWGQGTQVTVSS”, the “polyreactivity (PSR sort gate)” value was “low polyreactivity”.
For “QVQLVESGGGLVQAGGSLRLSCAASGSIFITYAMGWYRQAPGKERELVAAIRRGGRTNYADSVKGRFTISRDNAKNTVYLQMNSLKPEDTAVYYCAAEFRTGWPYYPDYAYDYWGQGTQVTVSS”, the “polyreactivity (PSR sort gate)” value was “low polyreactivity”.
In the case of “QVQLVESGGGLVQAGGSLRLSCAASGSIFITYDMGWYRQAPGKERELVAAISSVGRTTYADSVKGRFTISRDNAKNTVYLQMNSLKTEDTAVYYCAVVGRSSHNVRTYGYWGQGTQVTVTS”, the “polyreactivity (PSR sort gate)” value is reported as “low polyreactivity”.
For “QVQLVESGGGLVQAGGSLRLSCAASGSIFIVYAMGWYRQAPGKERELVAAISWSGGSTYYADSVKGRFTISRDNAKNTVYLQMNSLNPEDTAVYYCDAKYTLPFRDVKYYSWGQGTQVTVSS”, the “polyreactivity (PSR sort gate)” value was “high polyreactivity”.
In the case of “QVQLVESGGGLVQAGGSLRLSCAASGSIFIYNAMGWYRQAPGKERELVAAISSSGGSTYYADSVKGRFTISRDNAKNTVYLQMNSLKPEDTAVYYCAARTYYVRGLGGRPGMDYCGQGTQVTVSS”, the “polyreactivity (PSR sort gate)” value is reported as “low polyreactivity”.
For “QVQLVESGGGLVQAGGSLRLSCAASGSIFIYNAMGWYRQAPGKERELVAAISSSGGSTYYADSVKGRFTISRDNAKNTVYLQMNSLNPEDTAVSYCAARTYYVRGLGGRPGMDYWGQGTQVTVSS”, the “polyreactivity (PSR sort gate)” value was “low polyreactivity”.
In the case of “QVQLVESGGGLVQAGGSLRLSCAASGSIFKANGMGWYRQAPGKEREFVAAITRSGATTYYADSVKGRFTISRDNAKNTVYLQMNSLKPEDTAVYYCNVKAWRDLYYAGFDYWGQGTQVTVSS”, the “polyreactivity (PSR sort gate)” value is reported as “low polyreactivity”.
In the case of “QVQLVESGGGLVQAGGSLRLSCAASGSIFKDNAMGWYRQAPGKERELVAAITSGASTNYADSVKGRFTISRDNAKNTVYLQMNSLKPEVTAVYYCAAVLAGGVYWVVHYDYWGQGTQVTVSS”, the “polyreactivity (PSR sort gate)” value is reported as “low polyreactivity”.
For “QVQLVESGGGLVQAGGSLRLSCAASGSIFKGNAMGCYRQAPWKESEMVAAISGGGGSTYYADSVKGRFTISRDNAKNTVYLQMYSLKPEDTAVYYCAARYYESPGDRSGFRYGYWGQGTQVTVSS”, the “polyreactivity (PSR sort gate)” value was “high polyreactivity”.
In the case of “QVQLVESGGGLVQAGGSLRLSCAASGSIFKGNVMGWYRQAPGKERELVAAITWSGGSTYYADSVKGRFTISRDNAKNTVYLQMNSLKPEDTAVYYCNTDRYHRVDFDYWGQGTQVTVSS”, the “polyreactivity (PSR sort gate)” value is reported as “high polyreactivity”.
For “QVQLVESGGGLVQAGGSLRLSCAASGSIFKGYAMGWYRQAPGKERELVAAISSSGGSTYYADSVKGRFTISRDNAKNTVYLQMNSLKPEDTAVYYCNTDRYYTYDYWGQGTQVTVSS”, the “polyreactivity (PSR sort gate)” value was “low polyreactivity”.
In the case of “QVQLVESGGGLVQAGGSLRLSCAASGSIFKIYAMGWYRQAPGKERELVARITRRGGRTNYADSVKGRFTISRDNAKNTVYLQMNSLKPEDTAVYYCASLGRRGGDYWGQGTQVTVAS”, the “polyreactivity (PSR sort gate)” value is reported as “high polyreactivity”.
With “QVQLVESGGGLVQAGGSLRLSCAASGSIFKKYAMGWYRQAPGKERELVAAISSTGGSTKYADSVKGRFTISRDNAKNTVYLQMNSLKPEDTAVYYCAVRYKWPYDYWGQGTQVTVSS” the “polyreactivity (PSR sort gate)” value was “high polyreactivity”.
With “QVQLVESGGGLVQAGGSLRLSCAASGSIFKKYAMGWYRQAPGKERELVAAISSTGGSTKYADSVKGRFTISRDNAKNTVYLQMNSLKPEDTAVYYCNAPGLRDYDAEYDYWGQGTQVTVSS” the “polyreactivity (PSR sort gate)” value was “high polyreactivity”.
In the case of “QVQLVESGGGLVQAGGSLRLSCAASGSIFKKYAMGWYRQAPGKERELVAAISSVGGTYYADSVKGRFTISRDNAKNTVYLQMNSLKPEDTAVYYWYTDGYVGSIRSGLYIYDYWGQGTQVTVSS”, the “polyreactivity (PSR sort gate)” value is reported as “low polyreactivity”.
With “QVQLVESGGGLVQAGGSLRLSCAASGSIFKKYAMGWYRQAPGKERELVAAITRGTYYADSVKGRFTISRDNAKNTVYLQMNSLKPEDTAVYYCNREYWGRGYYRVRGEYDYWGQGTQVTVSS” the “polyreactivity (PSR sort gate)” value was “low polyreactivity”.
With “QVQLVESGGGLVQAGGSLRLSCAASGSIFKLNAMGWYRQAPGKERELVAAITFSDGSTNYADSVKGRFTISRDNAKNTVYLQMNSLKPEDTAVYYCAAEFYYRTQWYYYWGQGTQVTVSS” the “polyreactivity (PSR sort gate)” value was “high polyreactivity”.
With “QVQLVESGGGLVQAGGSLRLSCAASGSIFKLYALGWYRPAPGKERELVAAISLSDGGTYYADSVKGRFTISRDNPKNTVYLQMNSLKPEDTAVYYCNKYYWYPYGRAHDYGYWGQGTQVTVSS” the “polyreactivity (PSR sort gate)” value was “high polyreactivity”.
With “QVQLVESGGGLVQAGGSLRLSCAASGSIFKNYAMGWSRQSPGKERELVASITTGASTNYADSVKGRFTISRDNAKNTVYLQMNSLKPEDTAVYYCNADRYYSHYSYYYWGQGTQVTVSS” the “polyreactivity (PSR sort gate)” value was “high polyreactivity”.
In the case of “QVQLVESGGGLVQAGGSLRLSCAASGSIFKNYAMGWYRQAPGKERELVASITTGASTNYADSVKGRFTISRDNAKNTVYLQMNSLKPEDTAVYYCAKGGRTFRYFVAPRTFDHGYWGQGTQVTVSS”, the “polyreactivity (PSR sort gate)” value is reported as “high polyreactivity”.
In the case of “QVQLVESGGGLVQAGGSLRLSCAASGSIFKPYAMGWYRQAPGKERELVAAISSSGGSTYYADSVKGRFTISRDNAKNTVYFQMNSLKPEDTAVYYCNADWYYAGYGYWGQGTQVTVSS”, the “polyreactivity (PSR sort gate)” value is reported as “low polyreactivity”.
In the case of “QVQLVESGGGLVQAGGSLRLSCAASGSIFKQNAMGWYRQAPGKDRELVASIRASGDRTYYADSVKGRFTISRDNAKNTVYLQMNSLKPEDTAVYYCAARRVRTRGYNYWGQGTQVTVSS”, the “polyreactivity (PSR sort gate)” value is reported as “high polyreactivity”.
For “QVQLVESGGGLVQAGGSLRLSCAASGSIFKQNAMGWYRQAPGKERELVADITSSGGSTYYADSVKGRFTISRDNAKNTVYLQMNSLKPEDTAVYYCAADGNGVDYDYWGQGTQVTVSS”, the “polyreactivity (PSR sort gate)” value was “low polyreactivity”.
For “QVQLVESGGGLVQAGGSLRLSCAASGSIFKQYVMGWYRQAPGKEREFVARISKSGGSTYYADSVKGRFTISRDNAKNTVYLQMNSLKPEDTAVYYCAVASKQALQPWYDYWGQGTQVTVSS”, the “polyreactivity (PSR sort gate)” value was “high polyreactivity”.
In the case of “QVQLVESGGGLVQAGGSLRLSCAASGSIFKRNAMGWYRQAPGKERELVASISSGGSTHYADSVKGRFTISRDNAKNTVYLQMNSLKPEDTAVYYCAADSSWYVLYGSYYRSGLDYWGQGTQVTVSS”, the “polyreactivity (PSR sort gate)” value is reported as “low polyreactivity”.
In the case of “QVQLVESGGGLVQAGGSLRLSCAASGSIFKRYAMGRYRQAPGKERELVAAISYSGTSTYYADSVKGRFTISRDTAKNTVYLQMNSLKPEDTAVYYCNKVPGYRHYLGYPGRYGYWGQGTQVTVSS”, the “polyreactivity (PSR sort gate)” value is reported as “high polyreactivity”.
With “QVQLVESGGGLVQAGGSLRLSCAASGSIFKRYAMGWYRQAPGKERELVARISRRGGTYYADSVKGRFTISRDNAKNTVYLQMNSLKPEDTAVYYCNANVIFADNNDRDYWGQGTQVTVSS” the “polyreactivity (PSR sort gate)” value was “low polyreactivity”.
In the case of “QVQLVESGGGLVQAGGSLRLSCAASGSIFKRYTMGWYRQAPGKERELVASIRSRAGNTYYADSVKGRFTISRDNAKNTVYLQMNSLKPEDTAVYYCAVSAWGYYRTSYGYWGQGTQVTVSS”, the “polyreactivity (PSR sort gate)” value is reported as “high polyreactivity”.
For “QVQLVESGGGLVQAGGSLRLSCAASGSIFKSYAMGWYRKAPGKERELVAAITWRSGRTYYADSLKGRFTISRDNAKNTVYLQMNSLKPEDTAVYYCAAELVSVRYLYALHDRDYWGKGTQVTVSS”, the “polyreactivity (PSR sort gate)” value was “low polyreactivity”.
